Measured values published in PMC314469, “Protein Interaction Networks by Proteome Peptide Scanning” (PLoS Biology, 2004).

T1: Rvs167 SH3 (RV167_YEAST), P39743
T1 chain: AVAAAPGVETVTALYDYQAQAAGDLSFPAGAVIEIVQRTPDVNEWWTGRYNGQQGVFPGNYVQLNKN

T2: Boi1 SH3 (BOI1_YEAST), P38041
T2 chain: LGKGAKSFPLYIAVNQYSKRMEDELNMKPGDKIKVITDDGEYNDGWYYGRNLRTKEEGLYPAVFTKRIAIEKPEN

T3: Yfr024 SH3 (LSB3_YEAST), P43603
T3 chain: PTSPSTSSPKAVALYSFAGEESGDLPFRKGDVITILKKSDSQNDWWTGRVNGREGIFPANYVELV

T4: Yhr016c SH3 (YSC84_YEAST), P32793
T4 chain: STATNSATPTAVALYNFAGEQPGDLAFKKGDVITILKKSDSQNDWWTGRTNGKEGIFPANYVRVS

T5: Boi2 SH3 (BOI2_YEAST), P39969
T5 chain: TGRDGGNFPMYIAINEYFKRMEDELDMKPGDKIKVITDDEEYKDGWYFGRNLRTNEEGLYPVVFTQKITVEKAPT


Tests used:
Assay in all cases: SPOT array
[1] = target: T1, Rvs167 SH3 (RV167_YEAST), P39743
[2] = target: T2, Boi1 SH3 (BOI1_YEAST), P38041
[3] = target: T3, Yfr024 SH3 (LSB3_YEAST), P43603
[4] = target: T4, Yhr016c SH3 (YSC84_YEAST), P32793
[5] = target: T5, Boi2 SH3 (BOI2_YEAST), P39969

Row | Binder | normalised SPOT signal, Boehringer light units (BLU); mean over the file's lines of this peptide [1] | normalised SPOT signal, Boehringer light units (BLU); mean over the file's lines of this peptide [2] | normalised SPOT signal, Boehringer light units (BLU); mean over the file's lines of this peptide [3] | normalised SPOT signal, Boehringer light units (BLU); mean over the file's lines of this peptide [4] | normalised SPOT signal, Boehringer light units (BLU); mean over the file's lines of this peptide [5]
1 | ALVPFAPFKLLKDR [YHL047C 340-353] | 136 | 16.7 | 121 | 123 | 40.5
2 | ALKPKTPSKAPRKR [YBR060C 65-78] | 300 | 247 | 2060 | 341 | 103
3 | AFVPTNPWRSSMSL [YIL162W 315-328] | 57 | 294 | 840 | 58.7 | 39.8
4 | AKQPKEPKKRTTRR [YBR089C-A 7-20] | 130 | 196 | 854 | 78 | 105
5 | AGTPNVPTRRPILK [YIR003W 42-55] | 448 | 4210 | 24700 | 4390 | 26.9
6 | AGSPIRPYKQRYLL [YGL073W 526-539] | 343 | 744 | 1770 | 180 | 352
7 | AKSPLLPFKLLSDR [YCL073C 330-343] | 45.1 | 84.8 | 4310 | 229 | 46.2
8 | AAWPLDPARERWTR [YGR031W 269-282] | 25.5 | 549 | 300 | 134 | 52.7
9 | APAPLDPFKTGGNN [YBL007C 849-862] | 47.4 | 123 | 35.4 | 22.8 | 68.1
10 | AMPPTLPHRDWKDY [YGL153W 84-97] | 2620 | 113 | 14600 | 25500 | 39.4
11 | AIEPGVPSRYSDET [YDL246C 91-104] | 35.9 | 63 | 151 | 153 | 22.8
12 | ASLPVGPRKNGMNV [YAR061W 26-39] | 170 | 158 | 619 | 167 | 88

Continued, values first:

Row | normalised SPOT signal, Boehringer light units (BLU); mean over the file's lines of this peptide [1] | normalised SPOT signal, Boehringer light units (BLU); mean over the file's lines of this peptide [2] | normalised SPOT signal, Boehringer light units (BLU); mean over the file's lines of this peptide [3] | normalised SPOT signal, Boehringer light units (BLU); mean over the file's lines of this peptide [4] | normalised SPOT signal, Boehringer light units (BLU); mean over the file's lines of this peptide [5] | Binder
13 | 279 | 138 | 6490 | 895 | 162 | AGHPMKPHRIRMAH [YNL330C 36-49]
14 | 186 | 10.1 | 11200 | 6020 | 23.8 | AIPPPVPNRPGGTT [YLR144C 7-20]
15 | 63 | 34.6 | 648 | 125 | 39.3 | AMNPESPTRDQIFL [YMR012W 411-424]
16 | 422 | 642 | 1860 | 256 | 884 | AMTPFSPRKSHINN [YNL269W 98-111]
17 | 109 | 173 | 4960 | 194 | 198 | AARPTRPDKARRLG [YLR029C 39-52]
18 | 39.8 | 145 | 6370 | 1230 | 27.9 | ANLPNRPKRGEGIN [YMR047C 1035-1048]
19 | 59.8 | 132 | 145 | 179 | 8.2 | ALRPTGPDRGDGFD [YNL139C 1465-1478]
20 | 448 | 230 | 1960 | 917 | 27.5 | ALRPTPPERGSFPL [YLL018C-A 11-24]
21 | 0 | 69.5 | 1260 | 102 | 33.5 | AGQPEIPLKSNNKS [YKL104C 225-238]
22 | 56.6 | 102 | 96.8 | 30.2 | 31.2 | ALEPGIPDRFSPEM [YLR070C 92-105]
